# Molecular target: Cas9 (UniProt Q99ZW2 1-1368)
# Assay: ITC; RNA 62.5 uM into Cas9 5 uM; n = 2.10; triplicate; dH -399.10 kcal/mol; ITC, 20 mM HEPES pH 7.6, 150 mM NaCl, 25 °C, 200 rpm; no Mg2+ listed
# Settings: protein: recombinant; intramolecular helices; dimer possible
# Cas9, sequence (Q99ZW2 whole entry): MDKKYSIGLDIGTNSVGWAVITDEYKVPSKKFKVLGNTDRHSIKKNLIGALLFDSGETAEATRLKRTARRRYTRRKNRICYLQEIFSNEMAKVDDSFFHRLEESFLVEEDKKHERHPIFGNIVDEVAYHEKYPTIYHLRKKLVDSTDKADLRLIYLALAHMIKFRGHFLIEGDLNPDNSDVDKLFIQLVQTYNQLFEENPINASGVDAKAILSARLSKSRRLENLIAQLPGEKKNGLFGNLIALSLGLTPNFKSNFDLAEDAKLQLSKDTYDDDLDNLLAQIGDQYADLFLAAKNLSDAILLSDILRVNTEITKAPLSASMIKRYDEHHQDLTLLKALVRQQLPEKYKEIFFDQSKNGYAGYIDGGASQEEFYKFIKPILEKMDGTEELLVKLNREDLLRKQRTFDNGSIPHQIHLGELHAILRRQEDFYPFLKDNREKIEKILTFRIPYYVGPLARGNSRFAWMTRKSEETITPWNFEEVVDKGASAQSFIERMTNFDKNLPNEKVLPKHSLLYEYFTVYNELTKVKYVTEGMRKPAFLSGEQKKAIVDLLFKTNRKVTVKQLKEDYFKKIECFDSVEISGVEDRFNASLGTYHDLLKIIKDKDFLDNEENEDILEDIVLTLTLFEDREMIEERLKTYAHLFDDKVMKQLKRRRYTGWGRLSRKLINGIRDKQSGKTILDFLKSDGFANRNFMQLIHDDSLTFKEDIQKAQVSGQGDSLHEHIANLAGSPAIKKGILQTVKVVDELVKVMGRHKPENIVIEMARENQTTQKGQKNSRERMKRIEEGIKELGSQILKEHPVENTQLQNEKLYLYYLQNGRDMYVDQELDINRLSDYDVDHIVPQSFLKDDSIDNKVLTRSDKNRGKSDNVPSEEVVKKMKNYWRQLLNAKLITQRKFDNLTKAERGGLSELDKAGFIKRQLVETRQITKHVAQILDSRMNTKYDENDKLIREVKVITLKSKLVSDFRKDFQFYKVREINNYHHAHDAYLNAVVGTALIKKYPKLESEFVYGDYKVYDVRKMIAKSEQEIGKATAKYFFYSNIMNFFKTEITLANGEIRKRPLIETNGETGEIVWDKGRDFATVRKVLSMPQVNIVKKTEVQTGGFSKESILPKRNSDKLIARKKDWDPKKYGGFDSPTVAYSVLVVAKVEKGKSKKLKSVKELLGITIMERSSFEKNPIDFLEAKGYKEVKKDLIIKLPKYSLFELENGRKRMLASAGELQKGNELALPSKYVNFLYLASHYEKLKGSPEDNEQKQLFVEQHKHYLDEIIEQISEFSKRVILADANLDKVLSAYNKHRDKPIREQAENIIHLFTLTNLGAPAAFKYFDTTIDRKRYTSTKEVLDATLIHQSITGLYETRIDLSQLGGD
binder,measurement,value
RNA (sgRNA) (structured_RNA) RNA: GGUUGGACAUGCUCGACAUUCGUUUUAGAGCUAGAAAUAGCAAGUUAAAAUAAGGCUAGUCCGUUAUCAACUUGAAAAAGUGGCACCGAGUCGGUGCUUUUUU,Kd,2.21 µM

# Source: PMC9408429, “Thermodynamic Swings: How Ideal Complex of Cas9–RNA/DNA Forms”
